Assay results reported in the supplement of paper PMC12764529.
± gives the half width of the 95% confidence interval.

Key:
[1] = folding stability dG unfold (combined trypsin and chymotrypsin); higher = more stable
Method in brief: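 K50 was inferred by Bayesian fitting of sequencing counts obtained after protease digestion of designed mini-proteins. Unfolding free energy was derived by comparison with a sequence-predicted unfolded-state K50 and a shared folded-state K50, for each protease or both combined. The mini-proteins were under 80 residues, had no cysteine, were carried in a PA-tagged cDNA display construct, and were kept only if AlphaFold2 dimer inter-PAE exceeded 15.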

[2] = folding stability dG unfold from trypsin proteolysis; higher = more stable
Procedure: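 Folding stability of de novo designed mini-proteins (<80 aa, no Cys; designed by TrROS, TrMRF, ProteinMPNN and the joint model) was measured by cDNA display proteolysis with trypsin and chymotrypsin. Each protease was used at 11 concentrations in a threefold dilution series plus a no-protease condition. K50 was inferred by Bayesian fitting of sequencing counts, and dG unfold was derived against a sequence-predicted unfolded-state K50 (Tsuboyama et al. method). Sequences shown include variable-length N-terminal GS-type padding (SAGGSAGG...) inside a display construct carrying a PA tag. Rows were kept only if the AF2 dimer inter-PAE was >15, to exclude likely homo-oligomers.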

| Sequence | folding stability dG unfold [1] [kcal/mol] | folding stability dG unfold [2] [kcal/mol] |
| --- | --- | --- |
| SAGGSAGGSAGPPTSILEVKPGGEVTIKEGGTPVTVPSSVPYINLPEGGSAGSVEVPPELSAGGSAGGSAGG [r11_647_JUSTAS] | -0.314 ± 0.31 | 0.394 ± 0.042 |
| SAGGSAGGSAGTITTTTDPATGEYTVTIPIASGDGTPVGTIPVTVPKSDPSAAAAFIAATSAGGSAGGSAGG [r11_77_JUSTAS] | -0.438 ± 0.29 | 0.106 ± 0.11 |
| SAGGSAGGSAGTIVTPTATYRIEKLPDKRVRIVVGDKEYEVRVGEPFYLPGGVPFEVLDESAGGSAGGSAGG [r11_147_TrMRF] | -0.299 ± 0.19 | 0.35 ± 0.13 |
| SAGGSAGGSAGTVTVDPEKGVVYVPLPEPISPEEVIEKRKEPELDVKILSVGENVAVILVSAGGSAGGSAGG [r17_323_JUSTAS] | -0.218 ± 0.11 | 0.493 ± 0.027 |
| SAGGSAGGSAGVPVPGTDVPAEPITVLKKNPDGTVTKLKDESLTLEEIKAKLPGEVEFVGSAGGSAGGSAGG [r17_125_JUSTAS] | < -1 | 0.0884 ± 0.14 |
| SAGGSAGGSAKITIPASQITHVDLETGELLVDHPSGRPIIFRVDPDRPDLILVEDPSGLSLGSAGGSAGGSA [r18_418_TrMRF] | < -1 | -0.703 ± 0.15 |
| SAGGSAGGSALVRIEFPNGREIEIPNNMPYEQAKDVAVELAEEHGKNGRPFKVKIEEIKPPGSAGGSAGGSA [r18_213_TrROS] | -0.511 ± 0.56 | 0.439 ± 0.096 |
| SAGGSAGGSAMPEPVTITVRVPYEPDEAEAAAERIREEEYPDAKSITVTRDPATGTATFTVNSAGGSAGGSA [r18_390_JUSTAS] | < -1 | -0.222 ± 0.18 |
| SAGGSAGGSANSSSLPPNYVTPLPITVTDSRPGSYMPLEEREARAQALAEANPGVTVTVVRESAGGSAGGSA [r18_499_JUSTAS] | < -1 | -0.373 ± 0.099 |
| SAGGSAGGSATVIIMVDPDDIEEALKEAPPNSKVMIHNPDNGYMFEITPNKLEIVEPIPPGDSAGGSAGGSA [r18_246_TrROS] | -0.0908 ± 0.23 | 0.279 ± 0.058 |
| SAGGSAGGSAVEEEVERIEKAVGVPIDPGSSVTKVKEGVEPVLPYRMDIKPGVESPELLLLSAGGSAGGSAG [r3_427_JUSTAS] | < -1 | -0.908 ± 0.53 |
| SAGGSAGGSDPVVIPVPMDDFSKETIKNFIDEAPDDNRPIQMNFPNGKPIYIQVEPDGDIKPVSAGGSAGGS [r12_1054_TrROS] | < -1 | 0.557 ± 0.041 |
| SAGGSAGGSDWFPIRVEDIEYERDPADGRDSVTIEAQFPGKPHTFTIPPNAPIKPGDELWIPFSAGGSAGGS [r20_49_TrROS] | < -1 | -1.9 ± 0.8 |
| SAGGSAGGSGEEIIKKIAESLIPGHPNLKPDKITYDPKTGKITIKTKNPKAAKLLKELDLIKPSAGGSAGGS [r12_623_TrMRF] | < -1 | -0.446 ± 0.28 |
| SAGGSAGGSGKWMTAKELLKEFKPGKTIMIRMPPGTEIPPNIKPKGTFPGNGWMMIKIPPNDISAGGSAGGS [r12_356_TrROS] | -0.274 ± 0.42 | -0.2 ± 0.45 |
| SAGGSAGGSGMEKKTITITIPVPPDRDVTEEEIKETLKPLGYEEVDIEEIKPAGNSYTVTAVISAGGSAGGS [r20_79_JUSTAS] | -0.427 ± 0.52 | 0.212 ± 0.13 |
| SAGGSAGGSIAPDEPLVLEVEVEEVVPGVGEVLLPEWIAEEFPDAVIEVETDGTPVKVTIYRPSAGGSAGGS [r12_900_TrMRF] | 0.0203 ± 0.076 | 0.743 ± 0.045 |
| SAGGSAGGSIKVPKNSKVTVLYEKGGKKIEVSGIVDPKTGKILETDSLENLPDAKIVEIKVEDSAGGSAGGS [r12_6_TrMRF] | < -1 | -0.742 ± 0.15 |
| SAGGSAGGSKFPKKFTVEVYTLTKKLKTPEGKLKTETTVLIEKTEEIKPLPEIDEERVEKVLLSAGGSAGGS [r12_1060_JUSTAS] | < -1 | 0.166 ± 0.71 |
| SAGGSAGGSKIKILFDPNMTLEEAIELAEKLTKEFDAEVELEIIPKPKPKPLPVIDPENPKLLSAGGSAGGS [r12_159_TrMRF] | -0.72 ± 0.3 | 0.252 ± 0.028 |
| SAGGSAGGSKITITIAPGMSEEEAKKLAEELAKEFNIEIEVKIEPLKPVEKKFYVDKETNEIKSAGGSAGGS [r12_159_TrROS_Hall] | < -1 | -0.357 ± 0.19 |

| Sequence | folding stability dG unfold [1] [kcal/mol] | folding stability dG unfold [2] [kcal/mol] |
| --- | --- | --- |
| SAGGSAGGSMIVVKTENGEEIEISKDALKPGMTAEELKAKLPPGVKKIEIVEVKEVEVEVEEESAGGSAGGS [r20_161_TrROS_Hall] | < -1 | -0.865 ± 0.4 |
| SAGGSAGGSMKPVLTIPASVTDPEVAIAILREAKAALPEGTQLEVVMPGGAEEELKKAGLILKSAGGSAGGS [r12_992_JUSTAS] | < -1 | -1.4 ± 0.71 |
| SAGGSAGGSMKTALLDDGKTIPLPEEELPPDAGVEEVAKKIPPEAKKLTVKEPDGSTKTVPLASAGGSAGGS [r20_161_JUSTAS] | < -1 | -0.0521 ± 0.2 |
| SAGGSAGGSMTETVVLPYPLPPGVPFHIELPDGSKSVSADPETGTLTVLVKKGTEEAVKEALASAGGSAGGS [r12_476_JUSTAS] | -0.989 ± 0.27 | -0.508 ± 0.12 |
| SAGGSAGGSMTVKKIEIKPPPGGTDLATITTEKVDPSTGKPSLSTSTVTVPKNNPEAIEKFLSSAGGSAGGS [r12_691_JUSTAS] | < -1 | -0.257 ± 0.18 |
| SAGGSAGGSNIVSARPLGDLVLIEIEPGGKPLRAVVRPSELPPNPPIPPGLSYRVEPGSVSDYSAGGSAGGS [r12_1005_TrMRF] | < -1 | -1.09 ± 0.28 |
| SAGGSAGGSPPFTITFIDENGKGVKKINLPFDPKKPSVLPLSEEEIKALKEELGPEAKSITLSSAGGSAGGS [r12_514_JUSTAS] | < -1 | -0.658 ± 0.16 |
| SAGGSAGGSQKIEITKVEPERGPNGRPYHRVNIEIVIPDGKPRKFDFYFDDPEDLENMTIELPSAGGSAGGS [r20_130_TrROS] | -0.88 ± 0.19 | -0.861 ± 0.17 |
| SAGGSAGGSSMPLLTKETSESYDPVNNTKTTTERIEEPGSGKFVFTKTTTTYPDGTVTTTLVESAGGSAGGS [r12_115_JUSTAS] | -0.652 ± 0.35 | -0.336 ± 0.42 |
| SAGGSAGGSSMPPGWSVTSETVVESIIETPNGPIIKVTTSKTTVTPPNGPPSTYTTTSEDPLGSAGGSAGGS [r12_544_JUSTAS] | < -1 | -0.314 ± 0.13 |
| SAGGSAGGSSSVMTVTVEYPTPAPPVVRRETVEVPDPDGSLSEEELKEKYSPPDAVVTEVVRESAGGSAGGS [r12_611_JUSTAS] | < -1 | -1.07 ± 0.34 |
| SAGGSAGGSTIREILDALPPGREIDVERHPNNGHYEISIQNPNGPNPTFQIDDPVTKEIAEWISAGGSAGGS [r12_174_TrROS] | -0.0634 ± 0.11 | 0.65 ± 0.031 |
| SAGGSAGGSTTSTIKVTLENPSGSPLKLETATITTDPVAGTSTLTVTVPGTGETKFVGTNPNLSSAGGSAGG [r6_330_JUSTAS] | 0.107 ± 0.061 | 0.713 ± 0.052 |
| SAGGSAGGSVKVTTEPLPNGERLVTVTAYLKSKPYPVLMPYPASATPEQVKETALRIEKELEKSAGGSAGGS [r12_69_TrMRF] | < -1 | -0.999 ± 0.49 |
| SAGGSAGGSYPIFDKEKGKLDPGPPEKELDVVIKVKKDGKWYPIDLKLSKSDLIRFVKELEKDSAGGSAGGS [r20_148_TrMRF] | < -1 | -0.698 ± 0.24 |
| SAGGSAGGSYSKNGQPPPTREIEIIILVEDPEEAENKADELSEMLGMPIKVEIIPEEDAKKMISAGGSAGGS [r12_766_TrROS] | 0.27 ± 0.86 | 0.0437 ± 0.24 |
| SAGGSAGGTIIDRIKELFGPGMKINIQEHPSEPYYRIRIKNPGFGQKREIHVPPDSIEDILDQISAGGSAGG [r6_612_TrROS] | 0.202 ± 0.36 | 0.538 ± 0.33 |
| SAGGSAIRIEPDEDGYIKIEKPSPPGEPASELIEELKDFFPNWEVETHPHPNGRAEIIFRIPPDQFSAGGSA [r15_1047_TrROS] | -0.132 ± 0.15 | 0.244 ± 0.077 |
| SAGGSAKPVEVELPDGIEIYYPKDRMYIEINLPNGRPIKIPFEFDDPNDPERALDKARDLVKKLPWSAGGSA [r15_748_TrROS] | < -1 | -0.577 ± 0.41 |
| SAGGSAMDAEQIEEKIKEAMQDHGHEVEVEVQRDPNNTVVIQVESGPGMDKDRIQEALQEKFGVKISAGGSA [r15_807_TrROS] | < -1 | -0.793 ± 0.1 |
| SAGGSAMKVATLKVGGVDHTVEITPLPDGSYPVTTTAEEGGETTTTVVPKSEVKKLEDLPPEYRLLSAGGSA [r15_629_JUSTAS] | < -1 | -0.414 ± 0.49 |
